Drawing on PMC9303997, this text covers rate of ATP hydrolysis by VPS4B (malachite green; 0.2 uM enzyme, 2 uM ESCRT-III subunit, 2 mM ATP, 10 min, 37 °C) (ATP/VPS4B·min) for one molecule.

One experiment addresses T1, full-length CHMP2A (UniProt O43633).
T1 sequence: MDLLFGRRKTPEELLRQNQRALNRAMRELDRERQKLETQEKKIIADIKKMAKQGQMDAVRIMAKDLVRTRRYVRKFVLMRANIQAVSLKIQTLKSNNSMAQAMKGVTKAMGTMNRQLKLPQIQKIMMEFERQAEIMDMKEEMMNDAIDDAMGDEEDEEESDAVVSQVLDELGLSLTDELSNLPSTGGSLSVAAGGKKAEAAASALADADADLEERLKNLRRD

In experiment [1] the target is T2, full-length human CHMP1B with a single cysteine mutation at position 2 (CHMP1B^S2C) (human) (UniProt Q7LBR1).
T2 sequence: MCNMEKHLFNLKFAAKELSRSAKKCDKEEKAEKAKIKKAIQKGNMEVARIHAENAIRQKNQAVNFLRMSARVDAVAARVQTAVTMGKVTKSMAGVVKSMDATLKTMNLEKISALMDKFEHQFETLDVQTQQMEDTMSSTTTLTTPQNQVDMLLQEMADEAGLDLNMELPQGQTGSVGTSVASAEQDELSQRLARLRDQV

B1: Human VPS4B with a single mutation at position 2 for maleimide fluorophore labeling (VPS4B^S2C) (enzyme)
chain: MCSTSPNLQKAIDLASKAAQEDKAGNYEEALQLYQHAVQYFLHVVKYEAQGDKAKQSIRAKCTEYLDRAEKLKEYLKNKEKKAQKPVKEGQPSPADEKGNDSDGEGESDDPEKKKLQNQLQGAIVIERPNVKWSDVAGLEGAKEALKEAVILPIKFPHLFTGKRTPWRGILLFGPPGTGKSYLAKAVATEANNSTFFSISSSDLVSKWLGESEKLVKNLFQLARENKPSIIFIDEIDSLCGSRSENESEAARRIKTEFLVQMQGVGVDNDGILVLGATNIPWVLDSAIRRRFEKRIYIPLPEPHARAAMFKLHLGTTQNSLTEADFRELGRKTDGYSGADISIIVRDALMQPVRKVQSATHFKKVRGPSRADPNHLVDDLLTPCSPGDPGAIEMTWMDVPGDKLLEPVVSMSDMLRSLSNTKPTVNEHDLLKLKKFTEDFGQEG
modifications: LD655 maleimide dye on the cysteine introduced at position 2 (labelled during the purification)
As for B1, the rate of ATP hydrolysis by VPS4B (malachite green; 0.2 uM enzyme, 2 uM ESCRT-III subunit, 2 mM ATP, 10 min, 37 °C) (ATP/VPS4B·min) worked out at 12.7 with full-length CHMP2A and 3.4 in experiment [1].
